According to the supplement of paper PMC10567573:

B1: ANKRD40 (parent)
chain: SLRENDFIEIELDRQELTYQELLR

Variants of: B1
Experiment: protein stability index of a GFP-peptide fusion (GPS, HEK-293T) (PSI 1-6); higher = more stable
Conditions: c terminus: a fixed tail appended
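Also: lentivirally expressed fusions sorted by FACS into six bins by GFP to DsRed ratio, PSI derived from sequencing read proportions per bin multiplied by bin number.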

Row | Variant | protein stability index
1 | SLRENDFIEIELDRQQLTYQELLR [E16Q] | 3.18
2 | SLRENDFIEIELDRQCLTYQELLR [E16C] | 2.46
3 | SLRENDFIEIELDRQPLTYQELLR [E16P] | 3.42
4 | SLRENDFIEIELDRQLLTYQELLR [E16L] | 2.99
5 | SLRENDFIEIELDRQALTYQELLR [E16A] | 2.8
6 | SLRENDFIEIELDRQILTYQELLR [E16I] | 2.47
7 | SLRENDFIEIELDRQMLTYQELLR [E16M] | 2.6
8 | SLRENDFIEIELDRQNLTYQELLR [E16N] | 3.5
9 | SLRENDFIEIELDRQGLTYQELLR [E16G] | 2.91
10 | SLRENDFIEIELDRQFLTYQELLR [E16F] | 2.5
11 | SLRENDFIEIELDRQDLTYQELLR [E16D] | 3.24
12 | SLRENDFIEIELDRQHLTYQELLR [E16H] | 2.89
13 | SLRENDFIEIELDRQKLTYQELLR [E16K] | 2.93
14 | SLRENDFIEIELDRQRLTYQELLR [E16R] | 3.04
15 | SLRENDFIEIEYDRQELTYQELLR [L12Y] | 3.34
16 | SLRENDFIEIETDRQELTYQELLR [L12T] | 3.88
17 | SLRENDFIEIERDRQELTYQELLR [L12R] | 4.14
18 | SLRENDFIEIEHDRQELTYQELLR [L12H] | 3.82
19 | SLRENDFIEIEKDRQELTYQELLR [L12K] | 3.91
20 | SLRENDFIEIEVDRQELTYQELLR [L12V] | 3.54
21 | SLRENDFIEIEGDRQELTYQELLR [L12G] | 4.4
22 | SLRENDFIEIEEDRQELTYQELLR [L12E] | 4.41
23 | SLRENDFIEIEADRQELTYQELLR [L12A] | 3.92
24 | SLRENDFIEIEDDRQELTYQELLR [L12D] | 4.51

Row | Variant | protein stability index
25 | SLRENDFIEIEIDRQELTYQELLR [L12I] | 2.69
26 | SLRENDFIEIEPDRQELTYQELLR [L12P] | 3.72
27 | SLRENDFIEIEFDRQELTYQELLR [L12F] | 2.73
28 | SLRENDFIEIEQDRQELTYQELLR [L12Q] | 4.13
29 | SLRENDFIEIEMDRQELTYQELLR [L12M] | 2.67
30 | SLRENDFIEIESDRQELTYQELLR [L12S] | 4.18
31 | SLRENDFIEIENDRQELTYQELLR [L12N] | 4.17
32 | SLRENDFIEIEWDRQELTYQELLR [L12W] | 2.8
33 | SLRENDFIEIECDRQELTYQELLR [L12C] | 3.88
34 | SLRENDFIEIILDRQELTYQELLR [E11I] | 2.16
35 | SLRENDFIEIHLDRQELTYQELLR [E11H] | 2.68
36 | SLRENDFIEIYLDRQELTYQELLR [E11Y] | 2.16
37 | SLRENDFIEINLDRQELTYQELLR [E11N] | 3.33
38 | SLRENDFIEIQLDRQELTYQELLR [E11Q] | 2.74
39 | SLRENDFIEIDLDRQELTYQELLR [E11D] | 3.59
40 | SLRENDFIEIWLDRQELTYQELLR [E11W] | 1.98
41 | SLRENDFIEISLDRQELTYQELLR [E11S] | 2.45
42 | SLRENDFIEIGLDRQELTYQELLR [E11G] | 3.26
43 | SLRENDFIEIKLDRQELTYQELLR [E11K] | 2.45
44 | SLRENDFIEICLDRQELTYQELLR [E11C] | 2.37
45 | SLRENDFIEILLDRQELTYQELLR [E11L] | 1.94
46 | SLRENDFIEIFLDRQELTYQELLR [E11F] | 2.28
47 | SLRENDFIEIPLDRQELTYQELLR [E11P] | 3.75
48 | SLRENDFIEIRLDRQELTYQELLR [E11R] | 2.44

Row | Variant | protein stability index
49 | SLRENDFIEIALDRQELTYQELLR [E11A] | 3.15
50 | SLRENDFIEIVLDRQELTYQELLR [E11V] | 2.29
51 | SLRENDFIEITLDRQELTYQELLR [E11T] | 2.35
52 | SLRENDFIEIMLDRQELTYQELLR [E11M] | 2.41
53 | SLRENDFIEIELHRQELTYQELLR [D13H] | 2.22
54 | SLRENDFIEIELKRQELTYQELLR [D13K] | 2.55
55 | SLRENDFIEIELWRQELTYQELLR [D13W] | 1.81
56 | SLRENDFIEIELMRQELTYQELLR [D13M] | 2.45
57 | SLRENDFIEIELTRQELTYQELLR [D13T] | 2.15
58 | SLRENDFIEIELSRQELTYQELLR [D13S] | 2.54
59 | SLRENDFIEIELYRQELTYQELLR [D13Y] | 1.87
60 | SLRENDFIEIELGRQELTYQELLR [D13G] | 2.77
61 | SLRENDFIEIELRRQELTYQELLR [D13R] | 2.65
62 | SLRENDFIEIELPRQELTYQELLR [D13P] | 2.77
63 | SLRENDFIEIELARQELTYQELLR [D13A] | 2.56
64 | SLRENDFIEIELVRQELTYQELLR [D13V] | 1.78
65 | SLRENDFIEIELNRQELTYQELLR [D13N] | 3.17
66 | SLRENDFIEIELIRQELTYQELLR [D13I] | 1.77
67 | SLRENDFIEIELLRQELTYQELLR [D13L] | 2.04
68 | SLRENDFIEIELQRQELTYQELLR [D13Q] | 2.93
69 | SLRENDFIEIELFRQELTYQELLR [D13F] | 1.99
70 | SLRENDFIEIELERQELTYQELLR [D13E] | 2.82
71 | SLRENDFIEIELCRQELTYQELLR [D13C] | 2.35
72 | SLRENDFIKIELDRQELTYQELLR [E9K] | 2.4

Row | Variant | protein stability index
73 | SLRENDFITIELDRQELTYQELLR [E9T] | 2
74 | SLRENDFIAIELDRQELTYQELLR [E9A] | 2.58
75 | SLRENDFIQIELDRQELTYQELLR [E9Q] | 2.51
76 | SLRENDFIGIELDRQELTYQELLR [E9G] | 3.33
77 | SLRENDFIIIELDRQELTYQELLR [E9I] | 1.63
78 | SLRENDFIFIELDRQELTYQELLR [E9F] | 1.82
79 | SLRENDFIWIELDRQELTYQELLR [E9W] | 1.57
80 | SLRENDFIMIELDRQELTYQELLR [E9M] | 2.14
81 | SLRENDFIRIELDRQELTYQELLR [E9R] | 1.97
82 | SLRENDFISIELDRQELTYQELLR [E9S] | 2.73
83 | SLRENDFIHIELDRQELTYQELLR [E9H] | 2.27
84 | SLRENDFIPIELDRQELTYQELLR [E9P] | 3.59
85 | SLRENDFILIELDRQELTYQELLR [E9L] | 2.14
86 | SLRENDFICIELDRQELTYQELLR [E9C] | 2.17
87 | SLRENDFIDIELDRQELTYQELLR [E9D] | 3.47
88 | SLRENDFIYIELDRQELTYQELLR [E9Y] | 2.12
89 | SLRENDFINIELDRQELTYQELLR [E9N] | 2.82
90 | SLRENDFIVIELDRQELTYQELLR [E9V] | 1.87
91 | SLRENDFIEIELDCQELTYQELLR [R14C] | 2.09
92 | SLRENDFIEIELDNQELTYQELLR [R14N] | 3.54
93 | SLRENDFIEIELDQQELTYQELLR [R14Q] | 3.41
94 | SLRENDFIEIELDVQELTYQELLR [R14V] | 2.06
